Target: Full-length human AURKA^T288V (human) (UniProt O14965)
Assay: fluorescence polarisation; competitive displacement: 5 nM FITC-Tpx2^1–43 and 35 nM AURKA kept constant, unlabeled competitor (Bora or Tpx2) varied; 25 mM HEPES pH 7.5, 50 mM NaCl, 10 mM MgCl2, 0.1 mg/mL BSA, 0.01% Brij, 3 mM ADP, 2 mM DTT

Chain of Full-length human AURKA^T288V (human) (O14965 other isoform, or with tags, fused parts or gaps T288V | T288V): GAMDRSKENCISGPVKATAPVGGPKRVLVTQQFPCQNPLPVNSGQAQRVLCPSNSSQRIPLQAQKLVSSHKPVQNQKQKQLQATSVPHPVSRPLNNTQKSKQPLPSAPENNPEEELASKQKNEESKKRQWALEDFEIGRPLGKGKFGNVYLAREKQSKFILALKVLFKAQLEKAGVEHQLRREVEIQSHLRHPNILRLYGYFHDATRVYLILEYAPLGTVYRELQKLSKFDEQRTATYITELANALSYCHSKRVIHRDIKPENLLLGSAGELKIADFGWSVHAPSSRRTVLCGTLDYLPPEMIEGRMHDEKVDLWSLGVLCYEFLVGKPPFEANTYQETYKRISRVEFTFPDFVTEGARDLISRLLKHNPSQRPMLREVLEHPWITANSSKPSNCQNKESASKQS

“pBora^18–120 (from UniProt Q6PGQ7 18-120) (domain or fragment)” was tested, and the fold less efficient displacement of FITC-Tpx2^1–43 than pBora^1–224 was 20 fold.
